# Laboratory results taken from patent publication US12679878B2, “CRF2 receptor agonists and their use in therapy” (SANOFI, priority 2020, dated 2026).
# Starred links: 1 amine or outer side, 2 acyl side, 3 side chain; linkers in the order of their positions; H or OH if unused. Non-standard residues stand in square brackets, D forms with d. Groups on a side chain read outwards from the residue. No end group written: not given here. *: point of attachment. C18 diacid = O=C(O)CCCCCCCCCCCCCCCCC(=O)*; γGlu = O=C(O)[C@H](CCC(=O)[*:2])N[*:1]; AEEA = NCCOCCOCC(=O)O; Aib = CC(C)(N)C(=O)O
# T1: anti-target CRF1R receptor (UniProt P34998 24-415, limits assumed)
# T1 sequence (looked up): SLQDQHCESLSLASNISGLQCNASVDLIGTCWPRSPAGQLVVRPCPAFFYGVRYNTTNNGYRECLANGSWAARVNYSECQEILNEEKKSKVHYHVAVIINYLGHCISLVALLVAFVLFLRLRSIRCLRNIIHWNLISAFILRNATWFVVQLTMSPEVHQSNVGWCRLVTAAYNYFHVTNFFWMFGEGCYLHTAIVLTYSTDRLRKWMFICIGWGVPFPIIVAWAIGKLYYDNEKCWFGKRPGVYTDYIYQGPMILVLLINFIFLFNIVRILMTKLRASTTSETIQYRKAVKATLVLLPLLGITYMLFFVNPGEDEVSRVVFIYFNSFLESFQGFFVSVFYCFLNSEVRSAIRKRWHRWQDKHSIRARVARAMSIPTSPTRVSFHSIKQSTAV
# T2: endogenous human CRF2 (NCI-H82 cells) (human, UniProt Q13324 20-411)
# T2 sequence (looked up): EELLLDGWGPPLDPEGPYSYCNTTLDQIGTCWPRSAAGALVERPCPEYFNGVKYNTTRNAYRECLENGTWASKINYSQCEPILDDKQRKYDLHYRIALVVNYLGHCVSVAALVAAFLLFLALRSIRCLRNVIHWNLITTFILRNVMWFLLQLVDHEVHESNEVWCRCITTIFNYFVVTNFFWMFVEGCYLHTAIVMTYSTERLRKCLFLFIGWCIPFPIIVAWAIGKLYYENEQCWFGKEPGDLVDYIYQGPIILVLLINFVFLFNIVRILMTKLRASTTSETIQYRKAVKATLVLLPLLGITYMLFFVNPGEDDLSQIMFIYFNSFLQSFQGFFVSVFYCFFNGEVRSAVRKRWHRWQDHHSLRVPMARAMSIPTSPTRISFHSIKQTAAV
# Assays:
# Assay in all cases: cell-based or functional assay
# rat CRF2R α receptor = rat CRF2R α receptor (rat, UniProt P47866 20-411)
# [1] = target: T1, anti-target CRF1R receptor
# [2] = target: T2, endogenous human CRF2 (NCI-H82 cells)
"EC50 [nM], 0% HSA (cAMP, A7R5 cells) (rat CRF2R α receptor) [nM]","EC50[nM] 0% HSA (cAMP, CRF1R-overexpression CHO cells) [1] [nM]","Emax (%) (cAMP, CRF1R-overexpression CHO cells) [1]","EC50 [nM] (cAMP, NCI-H82 cells) [2]",Binder
0.1,> 1000,37.6,18,IVLSLD[dV]PIKLK([AEEA-AEEA-γGlu-C18 diacid])QILLKQERQKKQRQQAEKNKQILAQV-NH2 (N-terminus assumed; SMILES CC[C@H](C)[C@H](N)C(=O)N[C@H](C(=O)N[C@@H](CC(C)C)C(=O)N[C@@H](CO)C(=O)N[C@@H](CC(C)C)C(=O)N[C@@H](CC(=O)O)C(=O)N[C@@H](C(=O)N1CCC[C@H]1C(=O)N[C@H](C(=O)N[C@@H](CCCCN)C(=O)N[C@@H](CC(C)C)C(=O)N[C@@H](CCCCNC(=O)COCCOCCNC(=O)COCCOCCNC(=O)CC[C@H](NC(=O)CCCCCCCCCCCCCCCCC(=O)O)C(=O)O)C(=O)N[C@@H](CCC(N)=O)C(=O)N[C@H](C(=O)N[C@@H](CC(C)C)C(=O)N[C@@H](CC(C)C)C(=O)N[C@@H](CCCCN)C(=O)N[C@@H](CCC(N)=O)C(=O)N[C@@H](CCC(=O)O)C(=O)N[C@@H](CCCNC(=N)N)C(=O)N[C@@H](CCC(N)=O)C(=O)N[C@@H](CCCCN)C(=O)N[C@@H](CCCCN)C(=O)N[C@@H](CCC(N)=O)C(=O)N[C@@H](CCCNC(=N)N)C(=O)N[C@@H](CCC(N)=O)C(=O)N[C@@H](CCC(N)=O)C(=O)N[C@@H](C)C(=O)N[C@@H](CCC(=O)O)C(=O)N[C@@H](CCCCN)C(=O)N[C@@H](CC(N)=O)C(=O)N[C@@H](CCCCN)C(=O)N[C@@H](CCC(N)=O)C(=O)N[C@H](C(=O)N[C@@H](CC(C)C)C(=O)N[C@@H](C)C(=O)N[C@@H](CCC(N)=O)C(=O)N[C@H](C(N)=O)C(C)C)[C@@H](C)CC)[C@@H](C)CC)[C@@H](C)CC)C(C)C)C(C)C) [peptide of SEQ ID NO: 139]
0.26,> 1000,4.38,8.4,IVLSLD[dV]PIKLK([AEEA-AEEA-γGlu-C18 diacid])QILLKQERQKKQREKAEKNKQILAQV-NH2 (N-terminus assumed; SMILES CC[C@H](C)[C@H](N)C(=O)N[C@H](C(=O)N[C@@H](CC(C)C)C(=O)N[C@@H](CO)C(=O)N[C@@H](CC(C)C)C(=O)N[C@@H](CC(=O)O)C(=O)N[C@@H](C(=O)N1CCC[C@H]1C(=O)N[C@H](C(=O)N[C@@H](CCCCN)C(=O)N[C@@H](CC(C)C)C(=O)N[C@@H](CCCCNC(=O)COCCOCCNC(=O)COCCOCCNC(=O)CC[C@H](NC(=O)CCCCCCCCCCCCCCCCC(=O)O)C(=O)O)C(=O)N[C@@H](CCC(N)=O)C(=O)N[C@H](C(=O)N[C@@H](CC(C)C)C(=O)N[C@@H](CC(C)C)C(=O)N[C@@H](CCCCN)C(=O)N[C@@H](CCC(N)=O)C(=O)N[C@@H](CCC(=O)O)C(=O)N[C@@H](CCCNC(=N)N)C(=O)N[C@@H](CCC(N)=O)C(=O)N[C@@H](CCCCN)C(=O)N[C@@H](CCCCN)C(=O)N[C@@H](CCC(N)=O)C(=O)N[C@@H](CCCNC(=N)N)C(=O)N[C@@H](CCC(=O)O)C(=O)N[C@@H](CCCCN)C(=O)N[C@@H](C)C(=O)N[C@@H](CCC(=O)O)C(=O)N[C@@H](CCCCN)C(=O)N[C@@H](CC(N)=O)C(=O)N[C@@H](CCCCN)C(=O)N[C@@H](CCC(N)=O)C(=O)N[C@H](C(=O)N[C@@H](CC(C)C)C(=O)N[C@@H](C)C(=O)N[C@@H](CCC(N)=O)C(=O)N[C@H](C(N)=O)C(C)C)[C@@H](C)CC)[C@@H](C)CC)[C@@H](C)CC)C(C)C)C(C)C) [peptide of SEQ ID NO: 138]

# Continued, binder first:
Binder,"EC50 [nM], 0% HSA (cAMP, A7R5 cells) (rat CRF2R α receptor) [nM]","EC50[nM] 0% HSA (cAMP, CRF1R-overexpression CHO cells) [1] [nM]","Emax (%) (cAMP, CRF1R-overexpression CHO cells) [1]","EC50 [nM] (cAMP, NCI-H82 cells) [2]"
IVLSLD[dV]PIKLK([AEEA-AEEA-γGlu-C18 diacid])QILLKQERQK[Aib]QRQQAEKNKQILAQV-NH2 (N-terminus assumed; SMILES CC[C@H](C)[C@H](N)C(=O)N[C@H](C(=O)N[C@@H](CC(C)C)C(=O)N[C@@H](CO)C(=O)N[C@@H](CC(C)C)C(=O)N[C@@H](CC(=O)O)C(=O)N[C@@H](C(=O)N1CCC[C@H]1C(=O)N[C@H](C(=O)N[C@@H](CCCCN)C(=O)N[C@@H](CC(C)C)C(=O)N[C@@H](CCCCNC(=O)COCCOCCNC(=O)COCCOCCNC(=O)CC[C@H](NC(=O)CCCCCCCCCCCCCCCCC(=O)O)C(=O)O)C(=O)N[C@@H](CCC(N)=O)C(=O)N[C@H](C(=O)N[C@@H](CC(C)C)C(=O)N[C@@H](CC(C)C)C(=O)N[C@@H](CCCCN)C(=O)N[C@@H](CCC(N)=O)C(=O)N[C@@H](CCC(=O)O)C(=O)N[C@@H](CCCNC(=N)N)C(=O)N[C@@H](CCC(N)=O)C(=O)N[C@@H](CCCCN)C(=O)NC(C)(C)C(=O)N[C@@H](CCC(N)=O)C(=O)N[C@@H](CCCNC(=N)N)C(=O)N[C@@H](CCC(N)=O)C(=O)N[C@@H](CCC(N)=O)C(=O)N[C@@H](C)C(=O)N[C@@H](CCC(=O)O)C(=O)N[C@@H](CCCCN)C(=O)N[C@@H](CC(N)=O)C(=O)N[C@@H](CCCCN)C(=O)N[C@@H](CCC(N)=O)C(=O)N[C@H](C(=O)N[C@@H](CC(C)C)C(=O)N[C@@H](C)C(=O)N[C@@H](CCC(N)=O)C(=O)N[C@H](C(N)=O)C(C)C)[C@@H](C)CC)[C@@H](C)CC)[C@@H](C)CC)C(C)C)C(C)C) [peptide of SEQ ID NO: 135],0.13,> 1000,28.4,110
IVLSLD[dV]PIKLK([AEEA-AEEA-γGlu-C18 diacid])QILLKQERQK[Aib]QREQAEKNKQILAQV-NH2 (N-terminus assumed; SMILES CC[C@H](C)[C@H](N)C(=O)N[C@H](C(=O)N[C@@H](CC(C)C)C(=O)N[C@@H](CO)C(=O)N[C@@H](CC(C)C)C(=O)N[C@@H](CC(=O)O)C(=O)N[C@@H](C(=O)N1CCC[C@H]1C(=O)N[C@H](C(=O)N[C@@H](CCCCN)C(=O)N[C@@H](CC(C)C)C(=O)N[C@@H](CCCCNC(=O)COCCOCCNC(=O)COCCOCCNC(=O)CC[C@H](NC(=O)CCCCCCCCCCCCCCCCC(=O)O)C(=O)O)C(=O)N[C@@H](CCC(N)=O)C(=O)N[C@H](C(=O)N[C@@H](CC(C)C)C(=O)N[C@@H](CC(C)C)C(=O)N[C@@H](CCCCN)C(=O)N[C@@H](CCC(N)=O)C(=O)N[C@@H](CCC(=O)O)C(=O)N[C@@H](CCCNC(=N)N)C(=O)N[C@@H](CCC(N)=O)C(=O)N[C@@H](CCCCN)C(=O)NC(C)(C)C(=O)N[C@@H](CCC(N)=O)C(=O)N[C@@H](CCCNC(=N)N)C(=O)N[C@@H](CCC(=O)O)C(=O)N[C@@H](CCC(N)=O)C(=O)N[C@@H](C)C(=O)N[C@@H](CCC(=O)O)C(=O)N[C@@H](CCCCN)C(=O)N[C@@H](CC(N)=O)C(=O)N[C@@H](CCCCN)C(=O)N[C@@H](CCC(N)=O)C(=O)N[C@H](C(=O)N[C@@H](CC(C)C)C(=O)N[C@@H](C)C(=O)N[C@@H](CCC(N)=O)C(=O)N[C@H](C(N)=O)C(C)C)[C@@H](C)CC)[C@@H](C)CC)[C@@H](C)CC)C(C)C)C(C)C) [peptide of SEQ ID NO: 130],0.13,> 1000,20.3,4.3
IVLSLD[dV]PIKLK([AEEA-AEEA-γGlu-C18 diacid])QILLKQERQKKQREQAEKNKQILEQV-NH2 (N-terminus assumed; SMILES CC[C@H](C)[C@H](N)C(=O)N[C@H](C(=O)N[C@@H](CC(C)C)C(=O)N[C@@H](CO)C(=O)N[C@@H](CC(C)C)C(=O)N[C@@H](CC(=O)O)C(=O)N[C@@H](C(=O)N1CCC[C@H]1C(=O)N[C@H](C(=O)N[C@@H](CCCCN)C(=O)N[C@@H](CC(C)C)C(=O)N[C@@H](CCCCNC(=O)COCCOCCNC(=O)COCCOCCNC(=O)CC[C@H](NC(=O)CCCCCCCCCCCCCCCCC(=O)O)C(=O)O)C(=O)N[C@@H](CCC(N)=O)C(=O)N[C@H](C(=O)N[C@@H](CC(C)C)C(=O)N[C@@H](CC(C)C)C(=O)N[C@@H](CCCCN)C(=O)N[C@@H](CCC(N)=O)C(=O)N[C@@H](CCC(=O)O)C(=O)N[C@@H](CCCNC(=N)N)C(=O)N[C@@H](CCC(N)=O)C(=O)N[C@@H](CCCCN)C(=O)N[C@@H](CCCCN)C(=O)N[C@@H](CCC(N)=O)C(=O)N[C@@H](CCCNC(=N)N)C(=O)N[C@@H](CCC(=O)O)C(=O)N[C@@H](CCC(N)=O)C(=O)N[C@@H](C)C(=O)N[C@@H](CCC(=O)O)C(=O)N[C@@H](CCCCN)C(=O)N[C@@H](CC(N)=O)C(=O)N[C@@H](CCCCN)C(=O)N[C@@H](CCC(N)=O)C(=O)N[C@H](C(=O)N[C@@H](CC(C)C)C(=O)N[C@@H](CCC(=O)O)C(=O)N[C@@H](CCC(N)=O)C(=O)N[C@H](C(N)=O)C(C)C)[C@@H](C)CC)[C@@H](C)CC)[C@@H](C)CC)C(C)C)C(C)C) [peptide of SEQ ID NO: 137],0.14,> 1000,22.5,120
